{"source": "paper PMC5902495", "about": "“Synthesis of Symmetrical Tetrameric Conjugates of the Radiolanthanide Chelator DOTPI for Application in Endoradiotherapy by Means of Click Chemistry” (Frontiers in Chemistry, 2018)", "key": {"[1]": {"assay": "Octanol-water distribution coefficients", "type": "physicochemical", "conditions": "n-octanol / PBS pH 7.4, ^177Lu-labeled tracer, n = 6", "description": "Approximately 1 MBq of the ^177Lu-labeled tracer was added to a mixture of 0.5 mL phosphate buffered saline (PBS, pH 7.4) and 0.5 mL n-octanol in an Eppendorf tube (n = 6). After vigorous mixing of the suspension for 3 min, the vial was centrifuged at 11.500 g for 3 min for phase separation. 200 μL aliquots of each phase were withdrawn and measured in a gamma counter."}, "[2]": {"test_system": "subcutaneous LNCaP (PSMA-expressing human prostate carcinoma) xenografts", "assay": "Biodistribution in SCID mice bearing LNCaP xenografts", "type": "in vivo", "conditions": "compared to ^177Lu-DOTPI(DBCO-KuE)4", "description": "The experiments were carried out in accordance with the German Animal Welfare Act (Tierschutzgesetz), and were previously approved by the responsible authority (Regierung von Oberbayern). The animal model, male CB-17 SCID mice bearing subcutaneous LNCaP tumor xenografts, were generated as described before (Weineisen et al., [2014]). Approximately 1–4 MBq (varying molar activities; absolute molar amounts of active compound ranging from 0.11 to 0.15 nmol) of the ^177Lu-labeled PSMA inhibitors were injected into the tail vein of the animals, which were sacrificed 1 and 24 h post injection (n = 3 per tracer per time point). Selected organs were removed, weighted and the activities contained were measured in a γ-counter."}}}
{"compound": "O=C(O)CC[C@H](NC(=O)N[C@@H](CCCCNC(=O)CCCCCNC(=O)CCc1cn(CCCNC(=O)CCP(=O)(O)CN2CCN(CP(=O)(O)CCC(=O)NCCCn3cc(CCC(=O)NCCCCCC(=O)NCCCC[C@H](NC(=O)N[C@@H](CCC(=O)O)C(=O)O)C(=O)O)nn3)CCN(CP(=O)(O)CCC(=O)NCCCn3cc(CCC(=O)NCCCCCC(=O)NCCCC[C@H](NC(=O)N[C@@H](CCC(=O)O)C(=O)O)C(=O)O)nn3)CCN(CP(=O)(O)CCC(=O)NCCCn3cc(CCC(=O)NCCCCCC(=O)NCCCC[C@H](NC(=O)N[C@@H](CCC(=O)O)C(=O)O)C(=O)O)nn3)CC2)nn1)C(=O)O)C(=O)O", "note": "(single isomer, unassigned) [^177Lu-DOTPI(Trz-KuE)4, metal not drawn]", "values": [{"measurement": "logD", "setting": "[1]", "value": "-5 ± 0.1"}, {"measurement": "kidney uptake", "setting": "[2]; 1 and 24 h post injection", "value": "remarkably low"}, {"measurement": "tumor-to-organ ratios", "setting": "[2]; after 24 h", "value": "substantially better"}, {"measurement": "washout from non-target tissues", "setting": "[2]", "value": "much faster"}]}
